Molecular target: E. coli RNAP σ^70 (E. coli, UniProt P00579 1-613)
Sequence (P00579 whole entry): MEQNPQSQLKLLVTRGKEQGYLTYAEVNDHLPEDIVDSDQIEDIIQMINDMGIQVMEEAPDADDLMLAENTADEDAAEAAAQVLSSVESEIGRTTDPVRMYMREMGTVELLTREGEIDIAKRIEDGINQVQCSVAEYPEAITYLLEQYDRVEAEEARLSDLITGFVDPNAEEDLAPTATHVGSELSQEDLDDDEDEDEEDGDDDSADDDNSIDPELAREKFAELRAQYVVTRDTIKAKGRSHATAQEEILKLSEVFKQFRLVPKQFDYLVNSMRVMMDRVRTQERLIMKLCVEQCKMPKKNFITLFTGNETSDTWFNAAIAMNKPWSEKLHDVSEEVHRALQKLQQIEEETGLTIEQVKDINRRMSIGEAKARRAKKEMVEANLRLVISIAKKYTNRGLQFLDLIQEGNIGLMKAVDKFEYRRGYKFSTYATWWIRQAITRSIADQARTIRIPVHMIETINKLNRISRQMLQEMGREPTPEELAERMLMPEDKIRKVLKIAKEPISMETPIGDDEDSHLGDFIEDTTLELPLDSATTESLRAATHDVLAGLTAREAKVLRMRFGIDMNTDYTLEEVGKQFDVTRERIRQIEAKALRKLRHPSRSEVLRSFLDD

B1: E. coli stringent starvation protein A (EcSspA) (natural protein, UniProt P0ACA3 1-212, looked up)
chain: MAVAANKRSVMTLFSGPTDIYSHQVRIVLAEKGVSFEIEHVEKDNPPQDLIDLNPNQSVPTLVDRELTLWESRIIMEYLDERFPHPPLMPVYPVARGESRLYMHRIEKDWYTLMNTIINGSASEADAARKQLREELLAIAPVFGQKPYFLSDEFSLVDCYLAPLLWRLPQLGIEFSGPGAKELKGYMTRVFERDSFLASLTEAEREMRLGRS
binding result: binds
